In patent US20230287363, “DNA POLYMERASE, APTAMER, WARM-START DNA POLYMERASE AND PREPARATION METHODS AND APPLICATION THEREOF” (Sun Yat-Sen University, published 2023):

Target: T1, RHAU23-Bst (DHX36 RHAU23 peptide fused to N-terminus of Bst-LF) (Homo sapiens / Geobacillus …)
T1 chain: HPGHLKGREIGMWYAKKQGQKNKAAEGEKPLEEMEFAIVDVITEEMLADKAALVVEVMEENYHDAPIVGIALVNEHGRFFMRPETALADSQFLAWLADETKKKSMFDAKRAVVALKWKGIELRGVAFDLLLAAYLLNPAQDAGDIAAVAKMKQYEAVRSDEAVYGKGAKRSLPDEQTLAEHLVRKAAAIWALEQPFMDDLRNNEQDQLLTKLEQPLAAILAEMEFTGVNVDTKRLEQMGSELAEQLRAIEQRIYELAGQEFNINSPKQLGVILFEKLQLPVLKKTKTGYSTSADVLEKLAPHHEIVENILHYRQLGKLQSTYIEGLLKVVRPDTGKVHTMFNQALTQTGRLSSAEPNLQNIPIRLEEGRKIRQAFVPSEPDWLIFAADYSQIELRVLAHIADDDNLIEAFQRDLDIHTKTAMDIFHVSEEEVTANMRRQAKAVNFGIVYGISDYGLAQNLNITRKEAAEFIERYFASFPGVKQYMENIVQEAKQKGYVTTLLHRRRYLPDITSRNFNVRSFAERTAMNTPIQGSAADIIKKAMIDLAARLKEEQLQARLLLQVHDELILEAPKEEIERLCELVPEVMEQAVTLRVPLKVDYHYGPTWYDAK
Experiment: EMSA; Kd stated only as nM level; K+ buffer, 4 C
Conditions: tags: His-tag, pCold-I, E. coli BL21; label: 5'-FAM (EMSA); bulged G4 with flanking dsDNA
Procedure: Oligonucleotides were purchased from Sangon Biotech Co., Ltd (China). Double-stranded DNAs (dsDNA) were paired from the complementary single-stranded DNA (ssDNA) by denaturing at 95° C. for 5 min and subsequently cooling to 25° C. in a buffer containing 10 mM Tris-HCl (pH 7.4), 75 mM KCl and 0.5 mM EDTA. 20 nM 5′-FAM-labeled aptamer DNA (Table 1) was dissolved in a first buffer, denatured at 95° C. for 5 min and subsequently cooled to 25° C. at a rate of 0.1° C./s; the first buffer contained 10 mM Tris-HCl (pH 7.4), 75 mM KCl, 0.5 mM EDTA, and 0.2 mg/ml BSA. Then each aptamer DNA and the specified concentration of DNA polymerase fused to G-quadruplex binding peptide were added into a second buffer, to bind at 4° C. for 1 hour, to form a DNA-protein complex; the second buffer contained 20 mM Tris-HCl (pH 8.8), 10 mM (NH₄)₂SO₄, 50 mM KCl, 2-8 mM MgSO₄, and 0.1% Tween-20.
The binding of aptamer to DNA polymerase was detected by electrophoretic mobility shift assay. Specifically, DNA-protein complex was electrophoresed on 8% or 12% non-denatured polyacrylamide gel containing 75 mM KCl at 4° C. for 2 h in 1×TBE buffer containing 75 mM KCl. The DNA-protein complex was photographed by the ChemiDoc MP imaging system (Bio-Rad) and digitized by the Image Quant 5.2 software.

B1: PDGFRB-Fd-G4 (structured_DNA)
DNA 1: CCTGAAGCAGACAGCTAGTGAATTCGGGAGGGCGGCGGGGCAGGGTACTTGCGTATAACTGTTCCATAGT
DNA 2: ACTATGGAACAGTTATACGCAAGTATTTTTTTTTTTTTTTTTTTTTGAATTCACTAGCTGTCTGCTTCAGG
binding result: binds

B2: T4B1-Fd-G4 (structured_DNA)
DNA 1: CCTGAAGCAGACAGCTAGTGAATTCGTTTTGGTGGGTGGGTGGGTACTTGCGTATAACTGTTCCATAGT
DNA 2: ACTATGGAACAGTTATACGCAAGTATTTTTTTTTTTTTTTTTTTTTGAATTCACTAGCTGTCTGCTTCAGG
binding result: binds
